Reference: US20080260731A1

Molecular target: human V158 FcγRIIIa (FcγR-His) (human) (UniProt P08637)
Assay: Biacore SPR

Chain of human V158 FcγRIIIa (FcγR-His) (human) (P08637 17-208 F176V limits assumed): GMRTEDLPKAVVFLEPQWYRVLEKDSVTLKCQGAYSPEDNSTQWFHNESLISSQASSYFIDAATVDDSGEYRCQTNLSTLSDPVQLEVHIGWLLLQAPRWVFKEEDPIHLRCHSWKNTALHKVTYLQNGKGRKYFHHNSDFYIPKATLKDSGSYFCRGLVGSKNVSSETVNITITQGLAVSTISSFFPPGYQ

For “4G7 IgG1 antibody (chimeric, murine H0/L0 variable regions on human IgG1/kappa)”, the Kd was 240 nM.
